The numbers were not newly measured in article PMC2928749, which cites them from elsewhere.

The target of this series is hHR23B Ubl (Homo sapiens) (UniProt P54727).
Chain of hHR23B Ubl (Homo sapiens) (P54727 1-79): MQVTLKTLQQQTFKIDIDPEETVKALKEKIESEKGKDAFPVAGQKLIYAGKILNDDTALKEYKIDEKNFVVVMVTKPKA

Chain of Ataxin-3 Josephin (P54252 1-183): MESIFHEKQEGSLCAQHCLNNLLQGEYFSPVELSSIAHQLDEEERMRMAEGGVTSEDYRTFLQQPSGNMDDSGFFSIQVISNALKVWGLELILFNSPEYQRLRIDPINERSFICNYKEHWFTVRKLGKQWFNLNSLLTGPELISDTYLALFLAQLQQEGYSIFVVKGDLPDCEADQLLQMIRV

Broadly, the Kd is the free concentration of one partner at which half of the binding sites on the other are occupied at equilibrium, for simple one-to-one binding. On to Ataxin-3 Josephin (from UniProt P54252), for which the Kd is 12 µM.
